Assay results reported in PMC5752578 (Structure (London, England : 1993), 2017).

T1: Grp1 63-399 E161A part of the Grp1 63-399 E161A Arf6 Q67L fusion (mouse, UniProt O08967 63-399, E161A)
T1 sequence (looked up): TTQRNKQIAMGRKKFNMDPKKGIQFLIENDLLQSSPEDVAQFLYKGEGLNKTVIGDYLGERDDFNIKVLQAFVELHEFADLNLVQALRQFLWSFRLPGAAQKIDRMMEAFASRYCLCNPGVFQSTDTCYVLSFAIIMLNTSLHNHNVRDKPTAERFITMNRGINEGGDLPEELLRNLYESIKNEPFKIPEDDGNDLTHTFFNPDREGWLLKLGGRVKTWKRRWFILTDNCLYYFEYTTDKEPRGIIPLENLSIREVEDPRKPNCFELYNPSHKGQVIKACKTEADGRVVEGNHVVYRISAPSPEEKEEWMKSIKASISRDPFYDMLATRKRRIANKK


What was measured:
[1] = molecular target: the molecule itself; experiment: SEC-SAXS
[2] = molecular target: T1, Grp1 63-399 E161A part of the Grp1 …; experiment: SEC-SAXS

binding result [2]	Binder	stoichiometry N [1]
–	Grp1_(63-390) (mouse Grp1, diglycine splice variant, residues 63-390; fully active, lacking the polybasic region) (domain or fragment, UniProt O08967 63-390, looked up) TTQRNKQIAMGRKKFNMDPKKGIQFLIENDLLQSSPEDVAQFLYKGEGLNKTVIGDYLGERDDFNIKVLQAFVELHEFADLNLVQALRQFLWSFRLPGEAQKIDRMMEAFASRYCLCNPGVFQSTDTCYVLSFAIIMLNTSLHNHNVRDKPTAERFITMNRGINEGGDLPEELLRNLYESIKNEPFKIPEDDGNDLTHTFFNPDREGWLLKLGGRVKTWKRRWFILTDNCLYYFEYTTDKEPRGIIPLENLSIREVEDPRKPNCFELYNPSHKGQVIKACKTEADGRVVEGNHVVYRISAPSPEEKEEWMKSIKASISRDPFYDMLAT	2
binds	Arf6 Q67L part of the Grp1-Arf6 fusion constructs, loaded with GppNHp (natural protein, human) GKVLSKIFGNKEMRILMLGLDAAGKTTILYKLKLGQSVTTIPTVGFNVETVTYKNVKFNVWDVGGLDKIRPLWRHYYTGTQGLIFVVDCADRDRIDEARQELHRIINDREMRDAIILIFANKQDLPDAMKPHEIQEKLGLTRIRDRNWYVQPSCATSGDGLYEGLTWLTSNYK	–
